{"source": "patent US20110312505A1", "about": "(University of Texas, published 2011)", "binders": {"B1": {"name": "anti-C1s IgG 2.1L-2.1H (antibody, V domains shown)", "VH": "QVQLQQSGAELARPGASVKMSCKASGYTFTSYTMHWVKQRPGQGLEWIGYINPSSGYTNYNQKFKDKATLTADKSSSTANMQLSSLTSEDSAVYYCARSDRYDGYFDYWGQGTTLTVSS", "VL": "DVLMTQTPLSLPVSLGDQASISCRSSQSIVHSNGDTYLEWYLQKPGQSPKLLVYKLSNRFSGVPDRFSGSGSGTDFTLKISRVEAEDLGVYYCFQGSHVPLTFGAGTKLEIK", "notes": "also called C1s 2.1L-2.1H"}, "B2": {"name": "anti-C1s IgG 2.3L-2.2H (antibody, V domains shown)", "VH": "EVKLVESGGGFVKPGGSLKLSCAASGFTFSTYGMSWVRQTPEKRLEWVASISAGGTTYYSDSVKGRFTISRDNARNILYLQMSSLRSEDTAMYYCARWLLLAYWGQGTLVTSSA", "VL": "not shown", "notes": "Full-length IgG with human kappa and human IgG1 constant regions (pMAZ vectors, HEK293-F); also called C1s 2.3L-2.2H; 2.3L-2.2H (IgG)"}, "B3": {"name": "anti-C1s IgG 2.3L-2.3H (antibody, V domains shown)", "VH": "QVQLQQSGTVLARPGASVKMSCKASGYTFTSYWMHWVKQRPGQGLEWIGAIYPGNSDTSYNQKFKGKAKLTAVTSTSTAYMELSSLTNEDSAVYYCTRSDGYYYFDYWGQGTTLTVSS", "VL": "not shown", "notes": "Full-length IgG with human kappa and human IgG1 constant regions (pMAZ vectors, HEK293-F); also called C1s 2.3L-2.3H"}, "B4": {"name": "anti-C1s scFv 2.2L-2.2H (scFv)", "scFv": "DIVMTQSPASLAVSLGQRATISCRASESVDSYGNSFMHWYQQKPGQPPKLLIYRASNLESGIPARFSGSGSRTDFTLTINPVEADDVTTYYCQQSNEDPWTFGGGTKLEIKGGGGSGGGGSGGGGSGGGGSEVKLVESGGGFVKPGGSLKLSCAASGFTFSTYGMSWVRQTPEKRLEWVASISAGGTTYYSDSVKGRFTISRDNARNILYLQMSSLRSEDTAMYYCARWLLLAYWGQGTLVTSSA", "notes": "scFv in E. coli whole cell lysate; also called C1s-2 2L-2H"}, "B5": {"name": "anti-C1s scFv 2.3L-2.2H (scFv)", "scFv": "DIVMTQSPLTLTVTIGQPASISCKSSQSLLDSDGKTYLNWLLQRPGQSPKRLIYLVSKLDSGVPDRFTGSGSGTEFTLKTSRVEAEDLGVYYCWQGTHFPHFGGGTKLEIKGGGGSGGGGSGGGGSGGGGSEVKLVESGGGFVKPGGSLKLSCAASGFTFSTYGMSWVRQTPEKRLEWVASISAGGTTYYSDSVKGRFTISRDNARNILYLQMSSLRSEDTAMYYCARWLLLAYWGQGTLVTSSA", "notes": "scFv in E. coli whole cell lysate; also called C1s-2 3L-2H"}, "B6": {"name": "anti-C1s scFv 2.3L-2.3H (scFv)", "scFv": "DIVMTQSPLTLTVTIGQPASISCKSSQSLLDSDGKTYLNWLLQRPGQSPKRLIYLVSKLDSGVPDRFTGSGSGTEFTLKTSRVEAEDLGVYYCWQGTHFPHFGGGTKLEIKGGGGSGGGGSGGGGSGGGGSQVQLQQSGTVLARPGASVKMSCKASGYTFTSYWMHWVKQRPGQGLEWIGAIYPGNSDTSYNQKFKGKAKLTAVTSTSTAYMELSSLTNEDSAVYYCTRSDGYYYFDYWGQGTTLTVSSA", "notes": "scFv in E. coli whole cell lysate; also called C1s-2 3L-3H"}, "B7": {"name": "anti-C1s IgG 2.2L-2.2H (antibody, V domains shown)", "VH": "B2 VH", "VL": "DIVMTQSPASLAVSLGQRATISCRASESVDSYGNSFMHWYQQKPGQPPKLLIYRASNLESGIPARFSGSGSRTDFTLTINPVEADDVTTYYCQQSNEDPWTFGGGTKLEIK", "notes": "Full-length IgG made in HEK 293F cells; also called C1s 2.2L with 2.2H"}, "B8": {"name": "anti-BRIGHT IgG 1.2L-1.1H (antibody, V domains shown)", "VH": "EVKLVESGGDLVKPGGSLKLSCAASGFTFSSYGMSWVRQTPDKRLEWVATISSGGSYTYYPDSVKGRFTISRDNAKNTLYLQMSSLKSEDTAMYYCARHDYGNYVDYWGQGTTLTVSS", "VL": "not shown", "notes": "Full-length IgG with human kappa and human IgG1 constant regions (pMAZ vectors, HEK293-F); also called BRIGHT 1.2L-1.1H"}}, "key": {"[1]": {"molecular_target": "T1, human complement protein C1s (human, UniProt P09871 16-688)", "T1 construct": "Purified protein, bought; coated on ELISA plates, amine-coupled to a CM5 chip, or native in human serum (immunoprecipitation); also called human complement serine protease", "T1 sequence (looked up)": "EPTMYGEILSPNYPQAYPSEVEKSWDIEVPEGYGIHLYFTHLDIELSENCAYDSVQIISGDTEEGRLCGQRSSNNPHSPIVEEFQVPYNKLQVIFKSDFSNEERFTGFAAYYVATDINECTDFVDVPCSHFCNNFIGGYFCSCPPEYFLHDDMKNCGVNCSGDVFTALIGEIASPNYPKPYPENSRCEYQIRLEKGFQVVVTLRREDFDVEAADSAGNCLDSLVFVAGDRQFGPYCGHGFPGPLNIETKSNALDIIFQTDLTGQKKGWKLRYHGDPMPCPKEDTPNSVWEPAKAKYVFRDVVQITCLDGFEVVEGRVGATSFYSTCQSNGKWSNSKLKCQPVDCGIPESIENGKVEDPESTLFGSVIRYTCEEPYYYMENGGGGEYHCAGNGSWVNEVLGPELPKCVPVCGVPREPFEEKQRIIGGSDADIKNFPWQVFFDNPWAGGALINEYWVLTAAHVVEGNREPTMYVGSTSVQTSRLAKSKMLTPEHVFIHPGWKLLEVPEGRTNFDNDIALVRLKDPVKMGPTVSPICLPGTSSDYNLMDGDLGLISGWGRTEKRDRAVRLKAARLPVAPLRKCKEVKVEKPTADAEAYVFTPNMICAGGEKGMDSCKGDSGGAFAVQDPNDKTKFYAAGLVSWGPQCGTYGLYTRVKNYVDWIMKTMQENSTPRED", "experiment": "ELISA, antigen-coated plate, titration of purified IgG, anti-human Fc-HRP", "experimental": "(§1) Purified IgGs were added to the plate at various concentrations for 1.5 h and washed with PBS/0.05% Tween-20. A polyclonal antibody of goat anti-human Fc region conjugated HRP was used for detection and developed with TMB substrate and stopped with 2N H₂SO₄. The absorbance was measured at 450 nm with a 96 well spectrophotometer. A titration curve of purified IgGs was used to determine an approximate IC50 for binding (Table 8)."}, "[2]": {"molecular_target": "T1, human complement protein C1s", "experiment": "SPR (BIAcore 3000), C1s amine-coupled to CM5 chip, antibody injected, bivalent model", "experimental": "FIGS. 13A-13B. Kinetic binding analysis of purified anti-C1s IgGs by Surface Plasmon Resonance (Biacore). (FIG. 13A) Anti-C1s 2.1L-2.1HB was injected onto a chip with immobilized C1s at 25 nM, 50 nM, 100 nM or 200 nM and (FIG. 13B) As above for anti-C1s 2.3L-2.2H injected at 2.625 nM, 5.25 nM, 10.5 nM or 21 nM.\n(§2) Surface Plasmon Resonance (Biacore) C1s was covalently immobilized on a CM5 chip (GE healthcare, NJ) at a level of approximately 200 response units via standard amine coupling chemistry as described in the manufacturer's protocol. BSA was similarly coupled for baseline correction. All kinetic analyses were performed at 25° C. in HBS-EP (10 mM HEPES, 150 mM NaCl, 50 μM EDTA, 0.005% P-20, pH 7.4) on a BIAcore 3000 (GE healthcare, NJ). Antibodies were injected over immobilized antigen at a flow rate of 50 μl/min or 100 μl/min and the chip was regenerated with a single 10s injection of 20 mM NaOH. Each sensogram was run in duplicate. Kinetic and equilibrium constants were determined by global fitting to a bivalent model using BIAevaluation software (GE healthcare, NJ)."}, "[3]": {"molecular_target": "T1, human complement protein C1s", "experiment": "ELISA, E. coli whole cell lysate with scFv from combinatorial library"}, "[4]": {"molecular_target": "T1, human complement protein C1s", "experiment": "SPR (Biacore), IgG on immobilized C1s", "from_the_text": "Antibodies were recombinantly expressed and purified as monomeric scFv fragments in E. coli and as full-length IgG antibodies in HEK 293F cells. […] Furthermore, the antibodies were suitable for functional assays, such as sandwich ELISA and immunoprecipitation of C1s from human serum (FIGS. 14-15).\nas §2"}, "[5]": {"molecular_target": "T2, human B cell regulator of IgH transcription (BRIGHT) (human, UniProt Q99856 1-593, limits assumed)", "T2 construct": "Recombinant, made in bacteria", "T2 sequence (looked up)": "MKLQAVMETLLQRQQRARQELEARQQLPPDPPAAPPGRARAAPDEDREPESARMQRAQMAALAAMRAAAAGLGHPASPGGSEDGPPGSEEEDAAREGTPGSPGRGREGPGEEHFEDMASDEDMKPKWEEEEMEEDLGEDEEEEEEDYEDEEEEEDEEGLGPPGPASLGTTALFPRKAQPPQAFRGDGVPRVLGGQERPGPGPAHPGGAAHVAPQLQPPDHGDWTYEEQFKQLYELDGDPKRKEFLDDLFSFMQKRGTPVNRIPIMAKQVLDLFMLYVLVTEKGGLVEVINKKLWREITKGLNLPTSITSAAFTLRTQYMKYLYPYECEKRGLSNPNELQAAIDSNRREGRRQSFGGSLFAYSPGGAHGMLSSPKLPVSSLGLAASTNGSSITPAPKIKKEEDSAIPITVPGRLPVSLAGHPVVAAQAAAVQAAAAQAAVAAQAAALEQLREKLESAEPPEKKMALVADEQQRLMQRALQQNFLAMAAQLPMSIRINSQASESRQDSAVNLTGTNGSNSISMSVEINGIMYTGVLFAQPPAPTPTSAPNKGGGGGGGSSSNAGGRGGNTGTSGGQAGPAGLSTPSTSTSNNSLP", "experiment": "ELISA, antigen-coated plate, titration of purified IgG, anti-human Fc-HRP", "experimental": "as §1"}}}
{"binder": "B1", "values": [{"measurement": "EC50 (half-maximal binding)", "setting": "[1]", "value": 50, "unit": "nM"}]}
{"binder": "B2", "values": [{"measurement": "EC50 (half-maximal binding)", "setting": "[1]", "value": 0.43, "unit": "nM"}, {"measurement": "Kd", "setting": "[2]", "value": 0.43, "unit": "nM"}, {"measurement": "koff", "setting": "[2]", "value": 0.00019, "unit": "s⁻¹"}, {"measurement": "kon", "setting": "[2]", "value": 450000, "unit": "M⁻¹ s⁻¹"}]}
{"binder": "B3", "values": [{"measurement": "EC50 (half-maximal binding)", "setting": "[1]", "value": 100, "unit": "nM"}]}
{"binder": "B4", "values": [{"measurement": "ELISA Signal (OD450 on antigen-coated wells relative to BSA-coated wells)", "setting": "[3]", "value": 3.1, "unit": "fold over BSA wells"}]}
{"binder": "B5", "values": [{"measurement": "ELISA Signal (OD450 on antigen-coated wells relative to BSA-coated wells)", "setting": "[3]", "value": 4.22, "unit": "fold over BSA wells"}]}
{"binder": "B6", "values": [{"measurement": "ELISA Signal (OD450 on antigen-coated wells relative to BSA-coated wells)", "setting": "[3]", "value": 8.8, "unit": "fold over BSA wells"}]}
{"binder": "B7", "values": [{"measurement": "Kd", "setting": "[4]", "value": "~500", "unit": "nM"}]}
{"binder": "B8", "values": [{"measurement": "EC50 (half-maximal binding)", "setting": "[5]", "value": 1000, "unit": "nM"}]}
